Measurements published in article PMC9177983.

Target: reconstituted elongation complex (EC): His-tagged E. coli RNAP core complex on template DNA, non-template DNA and RNA transcript (E. coli)

Chain of NusG (P0AFG0 whole entry): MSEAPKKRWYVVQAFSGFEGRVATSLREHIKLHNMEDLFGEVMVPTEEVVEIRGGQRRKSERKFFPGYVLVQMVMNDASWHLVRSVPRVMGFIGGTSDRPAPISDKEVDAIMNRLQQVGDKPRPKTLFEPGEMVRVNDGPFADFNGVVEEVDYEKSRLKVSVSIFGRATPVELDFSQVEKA

## NusG (from UniProt P0AFG0 1-181) (natural protein)
  smFRET of surface-immobilised ECs with 500 nM NusG, no nucleotide: percentage of dynamic ECs in the high-mid and high-low FRET regimes (23% for EC alone): 33%
